Experiment: label from the status in PepcDB records

Sequence | protein production
MLLILAILPIVVTVGLGVFAGLRHQFAPTTSDILIQLVMHYALPLSLFGGILSLKRATIIQNSSVALWLALGMLGGMVIVIVSQCCFHQQLETGTLRALVIASPSIPFMGVSVLLVVFGKISVLLVALGGLYMNLVQVPVSVLLLTLAGGSTPEQRWRAGWQKLCRASRQPVVWAPISAFLLNLAGLRLPSAWLTNFTELGQAAGGVALFALGLLLTTRPWRLTRMVVLNVLLKNLGLPVLIWGIMASLGVSLSNQQLVVLTLAIPTATIATMLAVQNHLAPDEYVATQMLSTVIAPLTMGFLMWGLQLV | failed
MLLLSIYISIAIGISFICSVLEAVLLSISPSYIAQLNQQGHPAAEQLSKLKSDIDRPLASILTLNTIAHTIGAATAGAQAAVVFGSEALGIFSAVLTLAILVLSEIVPKTIGATYWRQLAPAAAVSLRWMVWALTPFVWFSEQITKRLARNHEAPKMRDELSAMAILARESGEFAEGESKILSNLLGIQDVPVTQVMTPRPVVFRVDATMTINEFLDKHKDTPFSRPLVYSEQKDNIIGFVHRLELFKMQQSGSGQKQLGAVMRPIQVVLNNTALPKVFDQMMTHRLQLALVVDEYGTVLGLVTLEDIFEHLVGEEIIDEADKSTDMQELAYQRWESWKEMHGVIESRDDDDEELEKQNVEPETQEPTKPDSKES | failed
MLLTQYEKYKRGFKFDHVWPILKGIEKFANDNMMTPASSPSPGMNSIDLNMDSEDANFSLSSRPMGLKKTKLKQLLEQNDKLIKAITKGTSERNEIQRQKIEVDRMKEENKILFADLNSISDPSSRAYIENERKRILEKRAQTNQHEEDGEGSQYHGSQYRASHYQESPSHGKQVQGEPDQGEDQRSPNNQEDFTQYYNYLSGTENIFP | failed
MLLYIHVPFCRRKCRYCAFHSLPLIGEGGTSPAPEALQTPHADTAITAGPTAASTALAGVAPVTPSAQAISGQDGHTSTKGHGVPPESPPGPTANAAGMSGGIAGIVDRAGGAMRSCTPAEALPAYVETLFSELALWGDRLGNATVETIFFGGGTPSLLPPHVVAAILDRVHRTFSVAPGAEISLEANPESLSNRQQARGLYDAGVNRLSLGVQALDDALLHLMGRPHRARDAIRAFNAARDAGFTNISLDFIWGLPGQRLRQWLDQLREVVRLRPEHLSCYGLTLEEGTPLTADVESGSIALPVEREQAAMFMQGAERLEEAGYLQYEISNFARMGFQCHHNLGYWEGRDYLGLGPSATSTIDGLRWTNPYDHGAWHESVRTGRIGADAERLDLTVRVLELVMLRLRTTRGLRVKAYRELTGRDFLRDHKPLVHLLHRNGLVRIRDGYLRLTRNGMLVSNSILERFFERSETLLTLESTEKTHETRMAGPISGDTP | failed
MLMTLAATTSVSFNSKLLLFRIRCSDSNPKRGFGSKKEEKDPALQQRKSSSKQSVSVPRKAPGLNTQFEGKSGRSFDIDFDERLENIRRSALEQKKTEVVKEFGPIDYDAPVKSDQKTIGLGTKVGVGIAVVVFGLVFALGDFLPTGSDSPTKNTTVVKNQISEEEKATLQQRLKEFETTLNGTPQDQAALEGAAVTLTELGDYSRAAAFLEKLAKERPTDPDVFRLLGEVNYELNNYEGSIAAYKISEKVSKGIDLEVTRGLMNAYLAAKKPDEAVKFLLDTRERLNTKKTSTTDSVTDETNLDPIQVELLLGKAYSDWGHISDAIAVYDQLISAHPEDFRGYLAKGIILRENGSRGDAERMFIQARFFAPNKAKALVDRYSKL | failed
MLNEEQNSLEEKGGENKNEKETPLKGIHSKIPSLKQALEQTISKIKSSKEFFKQILHNKKKLYIALGALLLLIVLIVALSLLLGHKKENKQTSLQTNTIATNNETPNNTNNANNTEAERQIENLDLSDLIGKDSLKRNDENQVDAIMKKASLLYEQGQKDEALHLFDKAASFSQGIASHNLGVIKFKEKDFNGALDLFDSSIASKENASVSAIDALVSAYHLQDEDLYYHYLKIARDTLYKDYKKSFYSYAYALKSYYAGEYFEALSPLMHPNSNAFLKPNTRLASKLFLMFKDETNAYEQLQKSANAQDELALGLLQARLGHYKQALEHLQHYLHNYPKDLNALMALELVSLKKGDTLKASEALKLASHTKEDTLLANSFYPIKPTINPVFLDKERAKERFWNTQYFEGKRDFIYRLLFYYAPFKVLDSKETLGVIEEGLFLLDSDAQKDLEGASLAFKRGRLMAIADKNALQGLKALENKRLKKALSFFDLSLKNSPNNALLHYNTGLIYAQLENYHKAYFHFLRAFHLNSADYLSAVFAILASHFTHEDTTEFLREITENFYSQDFSSPTQKALLSSLIAYLNYRTNWDMDWLKNAPKKLPFYYALEAAFAKESKDKKLMVQSFGNLKKMLPKDLISNIFYEIVSYYDASIRHTLSIYTLLDSHKISWDQTMQGPILGRHFYTYMGFMVNDLDHQERLLEQKIASLEEGEAPNDWLENLALVSLFQGQYEKASALYQNLISGLKDNETHLKILAGLTYIAQNNYDSAALWLELGKLDDPNNENIRYALGLLYQRKGDLKSALNHFLAIKTSDFSSPYFDFEIDANLLKERLDQEKEGEFLE | failed
MLNIGVKDVKTNLLTPVVTLSIFGSTGAVLPALAIPVITPTQQDIQPALPEPSPLPPTSPPVLEPPPSPPSPAPESENVLIPVQKIIVEGSTLFGPAEFDPILKPLEGQQVTLAELQRATDAITKLYLEGGYLTSRAVLNEQVVRDGVIRIQVLEGRLEDIRIEGNKGIIQRYIRSRIALGAGVPLNGNRLEEQLRLLRTDPLFANLSASLRPGTTPQESVLVVRVVPARWLNAAFGLDNHTSPAIAPNRATAFLGYNNLSGRGDSVYGSYAIGNNLGTFDWGASNTVEFGYSLPLNAMNGTLTIRTLQADSEITRPPALAAFNIRSESSIYQASFRQPVIRTIREELAFGIGFLMQSAQTFVLGVPAPISPGANASGYSASRVLEFTQEYTRRDTQGAWVFRSQFNFGLPIFGATENPSPIPDGNFFSWLGQGQRLQLLWADNLLILRTDVQLTPNSLLPFHQFVIGGPLSVRGYSTNALSGDNGLRFSGEARFPVLRTANRRPIISIGPLFDLGVVWNHSRNPAGAVPNNVIAGLGMGLLVQPTPNLDLQLQYAAPLIDLPGQTRSLQSDGIYFSLTVRP | failed
MLNIKRIKKKMNARNLFATAALLFTASTAFAQTGVQTNTPFGSGEDSIRCRQNISLFTSYAKTGNYKDAYDFWEKAYEECPASTKNIYIYGVKISEWRLQNEQDPAKRQQIIDKILKLYDDRVKYFGEDPKYGTDYIMASKISDYMQYMGDKTDYDKVYEWIKPTIDQHGENATPRALFYYAYSSLNKAIRNEAWHETYIKDYTFASQAMEKQLEVADEKGKEFIQPLKTQIDELFAQSGLADCNTLVKMYGDKLEENKTDTTFLKNMLGMFHASDCETHPLYFQANKYLFAVQPSAIAAMGLAKEAMEGNRYNEASDYLQKAIELSKSAKDRAACNYTLGLLAMKQGSYSTARSYCNKALAEDPAMGDALILIAQMYAATANTVFPGDAIKARCVYFLAVDKLQRAKNIDPSCAPRANRLISQYSRNFPSPADVFMHPDLEKGKSLFVGGWIGESTVIR | failed
MLNLSQNGCSVWVASSTEMVLTPTAVALGKFDGVHLGHQRVIQPVLQSTRSAQTWGDALDSSAQSANPPAAPQERIYSTVVTFRPHPQEFFTGQARTWLTPLDEKVQQLRSLGVDQLVLLPFDKELTALSPEEFVEKILVQQLRCQRISVGQDFCFGKQRRGTAKDLQLIAAKYHIPVSIVPLQTSDGQFLEDGNCGSFESLEDAPISTSLIRQALETGDIKTANRFLGRPYILIGVVVEGEQLGRTIGFPTANLELPKDKFVPRQGVYAVRVKILGESADANIPLEILGVMNIGNRPTVNGTYSSVEVYLLDWSGDLYGKELAVQLVDFLRPEQKFPSLEALKAQIQQDCTVARQILSREN | failed

Reference: a protein production outcome set (Wang et al. 2014)
